Earlier results on one substance are cited in PMC6307816.

This data set addresses EGFR (Homo sapiens) (UniProt P00533).

On to EGF (from UniProt P01133), for which the dissociation constant Kd was under 0.2 nM.

By Kd is commonly meant a measure of binding affinity in units of concentration.
